Assay results: PMC8221569 (Molecular Cell, 2021)

Assays:
Details in all cases: both partners purified
[1] = biological target: T1, MCM2 HBD (61–130)–H3.3–H4 complex ( | human, UniProt P49736 61-130; P84243 1-136; P62805 2-103); assay: pull-down; GST-tagged protein (1.5 nmol) on Glutathione Sepharose 4B, 1.5 nmol histone complex added; 20 mM Tris pH 7.5, 500 mM NaCl, 4°C, 2 hours; washes with 0.5% Triton X-100; SDS-PAGE
T1 construct: histone H3.3, human; histone H4, human; also called pre-assembled MCM2 HBD-H3.3-H4 complexes; MCM2 HBD–H3.3–H4 complex; source: purified as described previously (Huang et al., 2015); copies: + +

[2] = biological target: T2, histone H4 (recombinant) (human, UniProt P62805 2-103); assay: crystal structure; DNAJC9 HBD C243S mixed 1:1 with the MCM2 HBD (61–130)–H3.3 (57–135)–H4 complex, gel filtration in 1 M NaCl; PDB 7CJ0, 2.50 Å
[3] = biological target: T3, human histones H3.3–H4 tetramer (human, UniProt P84243 1-136; P62805 1-103); assay: ITC; MicroCal PEAQ-ITC, 20°C, 20 mM Tris-HCl pH 7.5, 500 mM NaCl; 300 μM DNAJC9 HBD in the syringe, 30 μM (dimers) H3-H4 in the cell; one set of sites model; n = 3
T3 construct: histone H3.3, human; histone H4, human; methods call it a tetramer; construct as in Huang et al., 2015; also called pre-assembled H3.3-H4; H3.3 WT-H4; source: bacteria, co-expressed and purified (as in Huang et al., 2015; Superdex 200 in 2 M NaCl); copies: 2 + 2

[4] = biological target: T2, histone H4 (recombinant); assay: crystal structure; DNAJC9 αB C243S mixed 1:1 with the MCM2 HBD (61–130)–H3.3 (57–135)–H4 complex, gel filtration in 500 mM NaCl; PDB 7CIZ, 1.80 Å

Row | binding result [1] | Binder | other results
1 | binds | GST-DNAJC9 HBD (histone binding domain, 171–249) (domain or fragment, PDB 7CJ0 holds the same limits with C243S; also called GST-tagged DNAJC9 HBD; DNAJC9 HBD WT; source: E. coli BL21 (DE3)-RIL, purified (Glutathione Sepharose 4B, Superdex 200)) EVPSYNAFVKESKQKMNARKRRAQEEAKEAEMSRKELGLDEGVDSLKAAIQSRQKDRQKEMDNFLAQMEAKYCKSSKGG | 
2 | binds | GST-DNAJC9 HBD Q224A R227A (domain or fragment, source: E. coli BL21 (DE3)-RIL, purified (Glutathione Sepharose 4B, Superdex 200)) EVPSYNAFVKESKQKMNARKRRAQEEAKEAEMSRKELGLDEGVDSLKAAIQSRAKDAQKEMDNFLAQMEAKYCKSSKGG | 
3 |  | DNAJC9 HBD C243S (171–249), GST tag removed (domain or fragment, crystallized construct; source: E. coli BL21 (DE3)-RIL, purified (Glutathione Sepharose 4B, 3C protease, Superdex 200)) EVPSYNAFVKESKQKMNARKRRAQEEAKEAEMSRKELGLDEGVDSLKAAIQSRQKDRQKEMDNFLAQMEAKYSKSSKGG | binding result [2]: binds
4 | binds | GST-DNAJC9 HBD F234A L235A (domain or fragment, source: E. coli BL21 (DE3)-RIL, purified (Glutathione Sepharose 4B, Superdex 200)) EVPSYNAFVKESKQKMNARKRRAQEEAKEAEMSRKELGLDEGVDSLKAAIQSRQKDRQKEMDNAAAQMEAKYCKSSKGG | 
5 | binds | GST-DNAJC9 HBD M238A Y242A (domain or fragment, source: E. coli BL21 (DE3)-RIL, purified (Glutathione Sepharose 4B, Superdex 200)) EVPSYNAFVKESKQKMNARKRRAQEEAKEAEMSRKELGLDEGVDSLKAAIQSRQKDRQKEMDNFLAQAEAKACKSSKGG | 
6 | binds | GST-DNAJC9 HBD 4A1 (E195A E196A E199A A200E) (domain or fragment, source: E. coli BL21 (DE3)-RIL, purified (Glutathione Sepharose 4B, Superdex 200)) EVPSYNAFVKESKQKMNARKRRAQAAAKAEEMSRKELGLDEGVDSLKAAIQSRQKDRQKEMDNFLAQMEAKYCKSSKGG | 
7 |  | DNAJC9 HBD (171–249), GST tag removed (domain or fragment, used in ITC; also called DNAJC9 HBD WT; source: E. coli BL21 (DE3)-RIL, purified (Glutathione Sepharose 4B, 3C protease, Superdex 200)) EVPSYNAFVKESKQKMNARKRRAQEEAKEAEMSRKELGLDEGVDSLKAAIQSRQKDRQKEMDNFLAQMEAKYCKSSKGG | Kd [3]: 55 nM
8 |  | RKELGLDEGVDSLKAAIQSRQKDRQKEMDNFLAQMEAKYSKSSKGG (domain or fragment, crystallized construct; also called isolated DNAJC9 αB helix (C243S); source: E. coli BL21 (DE3)-RIL, purified (Glutathione Sepharose 4B, 3C protease, Superdex 200)) [DNAJC9 αB C243S (204–249), GST tag removed] | binding result [4]: binds
